Test in all cases: flow cytometry, CHO-K1; single column;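 also: CHO-K1 cells transiently transfected with hCD27 alanine mutant constructs, anti-hCD27 antibody binding measured by flow cytometry, 30 min at 4 °C, wild-type hCD27 binding taken as 100%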
On the technique in general: A flow cytometer gives signals particle by particle.

In one assay the target is T1, K31A.
T1 construct: also called hCD27 K31A
T1 receptor: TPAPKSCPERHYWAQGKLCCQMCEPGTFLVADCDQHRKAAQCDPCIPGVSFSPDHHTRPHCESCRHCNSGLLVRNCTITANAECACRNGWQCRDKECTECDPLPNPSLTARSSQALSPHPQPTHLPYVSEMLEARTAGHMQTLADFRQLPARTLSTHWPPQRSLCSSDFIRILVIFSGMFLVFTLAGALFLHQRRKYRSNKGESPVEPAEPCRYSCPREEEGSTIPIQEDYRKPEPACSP

A further assay concerns the target T2, H36A.
T2 construct: also called hCD27 H36A
T2 receptor: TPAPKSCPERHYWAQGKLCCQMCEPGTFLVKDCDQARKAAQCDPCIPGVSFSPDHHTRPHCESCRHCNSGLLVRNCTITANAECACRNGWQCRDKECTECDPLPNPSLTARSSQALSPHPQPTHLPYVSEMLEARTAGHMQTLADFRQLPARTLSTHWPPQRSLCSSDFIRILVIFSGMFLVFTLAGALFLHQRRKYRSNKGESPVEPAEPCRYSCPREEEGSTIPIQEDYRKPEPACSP

Another assay addresses T3, K38A.
T3 construct: also called hCD27 K38A
T3 receptor: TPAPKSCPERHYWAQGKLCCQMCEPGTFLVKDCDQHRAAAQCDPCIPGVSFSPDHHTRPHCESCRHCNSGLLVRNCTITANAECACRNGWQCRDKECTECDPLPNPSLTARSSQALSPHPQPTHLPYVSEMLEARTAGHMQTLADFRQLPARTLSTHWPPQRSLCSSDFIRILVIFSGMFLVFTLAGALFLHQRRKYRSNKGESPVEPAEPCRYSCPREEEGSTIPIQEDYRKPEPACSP

For another assay, the target named is T4, Q41A.
T4 construct: also called hCD27 Q41A
T4 receptor: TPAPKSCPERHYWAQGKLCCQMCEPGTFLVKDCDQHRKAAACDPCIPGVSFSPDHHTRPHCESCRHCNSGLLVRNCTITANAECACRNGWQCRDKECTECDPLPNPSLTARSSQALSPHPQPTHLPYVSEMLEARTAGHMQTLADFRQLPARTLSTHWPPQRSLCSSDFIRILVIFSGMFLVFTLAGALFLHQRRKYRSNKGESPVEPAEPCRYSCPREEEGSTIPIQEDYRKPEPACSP

A further assay concerns the target T5, P44A.
T5 construct: also called hCD27 P44A
T5 receptor: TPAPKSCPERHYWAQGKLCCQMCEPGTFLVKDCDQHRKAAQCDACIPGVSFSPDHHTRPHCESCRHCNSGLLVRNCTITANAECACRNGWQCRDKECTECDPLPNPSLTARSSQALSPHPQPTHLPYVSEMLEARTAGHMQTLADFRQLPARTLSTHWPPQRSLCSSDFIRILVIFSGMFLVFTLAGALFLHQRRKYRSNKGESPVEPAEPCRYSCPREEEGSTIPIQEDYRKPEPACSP

In another assay the target is T6, I46A.
T6 construct: also called hCD27 I46A
T6 receptor: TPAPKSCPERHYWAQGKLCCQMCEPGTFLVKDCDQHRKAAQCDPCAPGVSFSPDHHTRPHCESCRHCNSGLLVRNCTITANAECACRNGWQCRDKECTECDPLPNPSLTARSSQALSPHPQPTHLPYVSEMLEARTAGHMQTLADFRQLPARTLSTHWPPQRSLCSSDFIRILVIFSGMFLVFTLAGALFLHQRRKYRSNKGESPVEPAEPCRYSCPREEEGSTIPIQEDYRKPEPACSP

The target in a further assay is T7, S63A.
T7 construct: also called hCD27 S63A
T7 receptor: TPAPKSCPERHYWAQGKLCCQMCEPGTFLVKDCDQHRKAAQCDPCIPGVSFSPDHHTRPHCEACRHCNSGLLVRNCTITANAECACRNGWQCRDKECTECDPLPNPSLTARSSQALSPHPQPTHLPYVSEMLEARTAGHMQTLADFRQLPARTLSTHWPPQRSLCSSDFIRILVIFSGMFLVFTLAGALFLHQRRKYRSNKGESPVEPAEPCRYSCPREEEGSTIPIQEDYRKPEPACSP

A further assay concerns the target T8, N88A.
T8 construct: also called hCD27 N88A
T8 receptor: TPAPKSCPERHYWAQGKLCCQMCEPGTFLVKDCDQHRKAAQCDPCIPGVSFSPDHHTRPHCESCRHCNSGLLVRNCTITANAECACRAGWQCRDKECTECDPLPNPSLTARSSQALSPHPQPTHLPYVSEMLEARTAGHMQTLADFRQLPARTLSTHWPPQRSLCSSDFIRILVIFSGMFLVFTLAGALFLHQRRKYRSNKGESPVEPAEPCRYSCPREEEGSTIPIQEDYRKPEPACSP

The target in a further assay is T9, G89A.
T9 construct: also called hCD27 G89A
T9 receptor: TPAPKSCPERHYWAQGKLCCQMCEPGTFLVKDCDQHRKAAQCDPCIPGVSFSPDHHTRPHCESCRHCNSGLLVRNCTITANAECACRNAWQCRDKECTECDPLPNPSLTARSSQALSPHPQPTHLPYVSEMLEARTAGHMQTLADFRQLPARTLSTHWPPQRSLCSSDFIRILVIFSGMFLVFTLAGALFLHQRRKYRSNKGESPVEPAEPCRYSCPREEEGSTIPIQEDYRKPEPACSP

In another assay the target is T10, R93A.
T10 construct: also called hCD27 R93A
T10 receptor: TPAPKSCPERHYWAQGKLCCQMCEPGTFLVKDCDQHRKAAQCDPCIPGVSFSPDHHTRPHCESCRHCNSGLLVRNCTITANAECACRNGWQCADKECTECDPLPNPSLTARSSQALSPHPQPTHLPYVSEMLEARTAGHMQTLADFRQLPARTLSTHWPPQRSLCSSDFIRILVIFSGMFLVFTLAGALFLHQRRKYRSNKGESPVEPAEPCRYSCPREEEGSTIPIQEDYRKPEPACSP

Experimental for G89A: (§1) The ability of several anti-hCD27 antibodies to bind to a series of hCD27 alanine mutants was determined using CHO-K1 cells, transiently transfected pCI-neo empty vector, pCI-neo.hCD27 and several pCI-neo.CD27Ala mutant constructs.
(§2) Detached cells were transferred to 96 wells round-bottomed well plates at approximately 1.2×10⁵ cells/well. After spinning down the cells, discarding the supernatants and re-suspending the cells in the residual volume, the primary antibodies were added and incubated for 30 minutes at 4° C. Cells were washed three times with DPBS/BSA 1%, followed by centrifugation, discarding of the supernatants and re-suspension in the residual volume. […] After washing once, antibody binding was detected using the HTS plate reader (FACS Canto II) and FlowJo software for data analysis. Debris, dead cells and doublets were excluded from the analysis. Binding was expressed as the geometric mean of the FITC signal, relative to antibody binding to hCD27, which was set at 100%.
Experimental for H36A: as §1, §2
Experimental for I46A: as §1, §2
Experimental for K31A: as §1, §2
Experimental for K38A: as §1, §2
Experimental for N88A: as §1, §2
Experimental for P44A: as §1, §2
Experimental for Q41A: as §1, §2
Experimental for R93A: as §1, §2
Experimental for S63A: as §1, §2

B1: hCD27.15-6B (humanized hCD27.15, human IgG4, Clone 6B) (antibody, V domains shown)
VH: QVQLVQSGAEVKKPGASVKVSCKASGFIIKATYMHWVRQAPGQRLEWMGRIDPANGETKYDPKFQVRVTITADTSASTAYMELSSLRSEDTAVYYCARYAWYFDVWGQGTLVTVSS
VL: DIQMTQSPSSLSASVGDRVTITCRASENIYSFLAWYQQKPGKAPKLLIYHAKTLAEGVTSRFSGSGSGTDFTLTISSLQPEDSATYYCQHYYGSPLTFGQGTRLEIKR
notes: humanized version of hCD27.15 from WO2012/004367 with identical CDR regions; also called hCD27.15 (humanized 6B); hCD27.15 6B humanized antibody
Turning to B1, the “% of WT hCD27 binding (geo mean FITC)” value in the assay with K31A turned out to be 30.3%; with H36A, 122%; with K38A, 97.6%; in the assay with Q41A it was 33.9%; with P44A, 68.7%; with I46A, 81.9%. The “% of WT hCD27 binding (geo mean FITC)” value was found to be 104% with S63A, 132% in the assay with N88A, 97.4% with G89A and 131% with R93A.

The values are drawn from patent publication US20190300618A1 (Merck Sharp & Dohme, published 2019).
